This note sets out measurements from article PMC3404105.

Assay [1] concerns the target Src family kinase 1 (SFK1) (Lytechinus pictus (endogenous in eggs and egg extract)). Description: FRET or BRET; FRET by single-photon multi-frequency domain FLIM; cell-free assay, demembranated sperm nuclei decondensed in fertilised egg extract (S10) with ATP-GS, no GTP; fixed, labelled with anti-PLCγ-OG488 (donor) and anti-SFK1-Alexa 546 (acceptor).
For assay [2] the target is unchanged. The assay is described as follows: FRET or BRET; time-resolved FRET by two-photon time-domain FLIM; unfertilised L. pictus eggs (T0), fixed, labelled with anti-PLCγ-OG488 (donor) and anti-SFK1-Cy5 (acceptor); FRET efficiency from donor lifetime. On the technique in general: BRET reads energy transfer from a luciferase to a nearby fluorophore.
Assay [3] has the same target. The assay is described as follows: FRET or BRET; time-resolved FRET by two-photon time-domain FLIM; L. pictus eggs three minutes post-fertilisation (T+3), fixed, labelled with anti-PLCγ-OG488 (donor) and anti-SFK1-Cy5 (acceptor); ROI whole egg or male pronucleus.

The substance phospholipase Cγ (PLCγ) (enzyme) came in with an FRET efficiency in assay [1] of 5.7%. The substance also had an FRET efficiency % (egg ROI) in assay [2] of 18.9%. In addition, in assay [3], the FRET efficiency % (MPN ROI) is 4.8% and the FRET efficiency % (egg ROI) is 5.3%.
